{
  "source": "patent US5496831",
  "molecular_target": "E2F-1 (UniProt Q01094)",
  "sequence (Q01094 whole entry)": "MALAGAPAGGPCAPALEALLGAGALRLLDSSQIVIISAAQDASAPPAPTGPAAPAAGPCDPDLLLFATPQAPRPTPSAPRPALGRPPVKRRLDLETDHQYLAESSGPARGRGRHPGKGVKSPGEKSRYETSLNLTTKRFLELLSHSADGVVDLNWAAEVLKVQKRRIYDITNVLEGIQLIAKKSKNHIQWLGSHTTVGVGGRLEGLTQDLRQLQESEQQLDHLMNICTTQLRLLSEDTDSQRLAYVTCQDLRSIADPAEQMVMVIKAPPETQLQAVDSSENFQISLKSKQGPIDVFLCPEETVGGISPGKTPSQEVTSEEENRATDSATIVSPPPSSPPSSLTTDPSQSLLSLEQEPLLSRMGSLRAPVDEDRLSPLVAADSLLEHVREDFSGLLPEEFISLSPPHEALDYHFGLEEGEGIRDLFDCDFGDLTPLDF",
  "assay": "cell_activity",
  "conditions": "CHO cells, -T antigen; CAT/bGAL 5.2 vs 2.6",
  "data": [
    {"substance": "HGAPDH promoter (-487 to +21)-CAT", "values": [
      {"measurement": "activity", "value": 2, "unit": "fold"}
    ]}
  ]
}
